Measurements published in the RNAGym collection of RNA variant scans (doi:10.1021/acssynbio.7b00057).

B1: Pistol ribozyme (parent)
chain: GGGUCGUUGUUCCAUAAUCGCGUGGAUAUGGCACGCAAGUUUCUACCGGGCACCGUAAAUGUCCGACUGGAGCCGUUCGGGCGGCUAUAAACAGACCUCAGGCCCGAAGCGUGGCGGCACCUGCCGCCGGUGGUAAAAAAGAUCGGAAGAGCACACGUCU

Variants of: B1
Test: aptazyme ON/OFF ratio, guanine; higher = stronger switching; co-transcriptional cleavage with and without guanine

Variant	aptazyme ON/OFF ratio
G9C U10C C13U	1.1
G9C U10C C13A	1.06
G9A U10G U11C C13A	1.16
G9A U10G U11C C13U	1.09
G9A U10G U11C C13G	1.12
G9A U10G U11C C12A C13U	1.25
G9A U10G U11C C12A C13A	1.18
G9A U10G U11C C12A C13G	1.15
G9C U10C U11A C12U C13U	1.06
G9C U10C U11A C12U C13A	1.08
G9C U10C U11A C12U C13G	1.1
G9C U10C	1.52
G9C U10A	1.98
G9C U10C U11G	1.41
G9C U10C U11C	0.976
G9C U10C U11A	1.12
G9C U10C U11C C12A C13A	1.03
G9C U10C U11C C12A C13G	1.01
G9C U10C U11C C12A C13U	0.997
G9A U10G U11A C12U C13A	1.21
G9A U10G U11A C12U C13G	1.2
G9A U10G U11A C12U C13U	1.24
G9C C12G C13G	1.14
G9C C12G C13A	1.28

Variant	aptazyme ON/OFF ratio
G9C C12G C13U	1.26
G9A U11C C12G C13A	1.28
G9A U11C C12G C13G	1.15
G9A U11C C12G C13U	1.33
G9A U10A U11G C12G C13U	1.25
G9A U10A U11G C12G C13A	1.42
G9A U10A U11G C12G C13G	1.2
G9A U11C C12U	1.35
G9A U11C C12G	1.45
G9A U11C C12A	1.38
G9A U10C U11C C12G C13G	1.2
G9A U10C U11C C12G C13A	1.16
G9A U10C U11C C12G C13U	1.14
G9A U10G C13G	1.15
G9A U10G C13U	1.52
G9A U10G C13A	1.3
G9A U10C U11A C12G C13U	1.36
G9A U10C U11A C12G C13A	1.14
G9A U10C U11A C12G C13G	1.31
G9A U11G C12A	1.1
G9A U11G C12U	2.06
G9A U11G C12G	1.3
G9C U10C U11G C12A C13U	1.02
G9C U10C U11G C12A C13G	1.03

Variant	aptazyme ON/OFF ratio
G9C U10C U11G C12A C13A	1.04
G9C U10A C12U C13A	1.24
G9C U10A C12U C13G	1.17
G9C U10A C12U C13U	1.07
G9A U10G U11A C12G C13A	1.02
G9A U10G U11A C12G C13G	1.45
G9A U10G U11A C12G C13U	1.53
G9A U10C C12U C13U	1.34
G9A U10C C12U C13G	1.27
G9A U10C C12U C13A	1.38
G9C U10A C12G C13A	1.31
G9C U10A C12G C13G	1.18
G9C U10A C12G C13U	1.22
G9A U11G C12A C13A	1.18
G9A U11G C12A C13U	1.32
G9A U11G C12A C13G	1.31
G9A U11G C13U	1.44
G9A U11G C13A	1.37
G9A U11G C13G	1.1
G9C U10A U11C C12U C13G	1.12
G9C U10A U11C C12U C13A	1.25
G9C U10A U11C C12U C13U	1.29
G9C U10A C12A C13A	1.21
G9C U10A C12A C13G	1.16

Variant	aptazyme ON/OFF ratio
G9C U10A C12A C13U	1.23
G9A U10G U11G C12G C13U	1.15
G9A U10G U11G C12G C13G	1.22
G9A U10G U11G C12G C13A	1.16
G9A U10A U11C C13G	1.09
G9A U10A U11C C13U	1.01
G9C C13G	1.03
G9C C13U	1.07
G9C C13A	1.02
G9A U10G U11C C12U C13G	1.22
G9A U10G U11C C12U C13U	1.4
G9A U10G U11C C12U C13A	1.26
G9C U10A U11G C12G C13U	1.16
G9C U10A U11G C12G C13G	1.13
G9C U10A U11G C12G C13A	1.19
G9A U10C U11A C12A	1.67
G9A U10C U11A C12G	1.48
G9A U10C U11A C12U	1.78
G9A U10C U11G C12U	1.52
G9A U10C U11G C12G	1.18
G9A U10C U11G C12A	1.03
G9C U10C C12U C13A	1.07
G9C U10C C12U C13U	1.07
G9C U10C C12U C13G	1.06

Variant	aptazyme ON/OFF ratio
G9A U11A C12U C13A	1.37
G9A U11A C12U C13U	1.91
G9A U11A C12U C13G	1.33
G9C U10A C13G	1.08
G9C U10A C13U	1.3
G9C U10A C13A	1.3
G9A U11G C12G C13G	1.3
G9A U11G C12G C13U	1.15
G9A U11G C12G C13A	1.18
G9A U10G C12G C13G	1.21
G9A U10G C12G C13U	1.29
G9A U10G C12G C13A	1.19
G9C U10A U11C C12A C13G	1.18
G9C U10A U11C C12A C13U	1.29
G9C U10A U11C C12A C13A	1.3
G9A U11C C12A C13U	1.23
G9A U11C C12A C13G	1.35
G9A U11C C12A C13A	1.06
G9A U11G C12U C13G	1.42
G9A U11G C12U C13U	1.21
G9A U11G C12U C13A	1.35
G9C U10A U11G C12U C13G	1.16
G9C U10A U11G C12U C13U	1.26
G9C U10A U11G C12U C13A	1.08

Variant	aptazyme ON/OFF ratio
G9A U10C U11G C13G	1.18
G9A U10C U11G C13A	1.39
G9A U10C U11G C13U	1.39
G9A U10C U11A C12A C13U	1.63
G9A U10C U11A C12A C13A	1.28
G9A U10C U11A C12A C13G	1.42
G9C U10C U11G C12U C13A	1.04
G9C U10C U11G C12U C13G	1.05
G9A U10A U11G C13G	1.11
G9A U10A U11G C13A	1.34
G9A U10A U11G C13U	1.51
G9C U10A U11A C12U C13U	1.42
G9C U10A U11A C12U C13G	1.14
G9C U10A U11A C12U C13A	1.34
G9C U10C U11C C12U	1.03
G9C U10C U11C C12G	1.04
G9C U10C U11C C12A	1.04
G9C U10A U11C C12G	1.18
G9C U10A U11C C12U	1.13
G9C U10A U11C C12A	1.48
G9A U10G U11G C13U	1.12
G9A U10G U11G C13G	1.14
G9A U10G U11G C13A	1.2
G9A U10C U11C C12U C13A	1.03

Variant	aptazyme ON/OFF ratio
G9A U10C U11C C12U C13G	1.04
G9A U10C U11C C12U C13U	1.06
G9C U10A U11C	1.06
G9C U10A U11A	2.14
G9C U10A U11G	2.06
G9C U10C U11A C12G C13G	1.19
G9C U10C U11A C12G C13A	1.19
G9C U10C U11A C12G C13U	1.22
G9A U10C U11G	1.86
G9A U10C U11A	2.25
G9A U10C U11C	1.06
G9C U10A U11G C13U	1.35
G9C U10A U11G C13G	1.09
G9C U10A U11G C13A	1.21
G9A U10C C12A C13G	1.29
G9A U10C C12A C13A	1.46
G9A U10C C12A C13U	1.19
G9A U11C C12U C13A	1.41
G9A U11C C12U C13G	1.38
G9A U11C C12U C13U	1.55
G9A U10A U11G C12A C13U	1.26
G9A U10A U11G C12A C13A	1.07
G9A U10A U11G C12A C13G	1.28
